# Data published in US20200199241A1 (Chugai, published 2020).
# Numbering of substitutions follows the chain as printed.
# B1: IgG1-F1247 (antibody)
# heavy: QVQLQESGPGLVKPSETLSLTCAVSGHSISHDHAWSWVRQPPGEGLEWIGFISYSGITNYNPSLQGRVTISRDNSKNTLYLQMNSLRAEDTAVYYCARSLARTTAMDYWGEGTLVTVSSASTKGPSVFPLAPSSKSTSGGTAALGCLVKDYFPEPVTVSWNSGALTSGVHTFPAVLQSSGLYSLSSVVTVPSSSLGTQTYICNVNHKPSNTKVDKKVEPKSCDKTHTCPPCPAPELRGGPKVFLFPPKPKDVLYISREPEVTCVVVDVSHEDPEVKFNWYVDGVEVHNAKTKPREEQYNSTYRVVSVLTVLHQDWLNGKEYKCKVSNKALPAPIEKTISKAKGQPREPQVYTLPPSRDELTKNQVSLTCLVKGFYPSDIAVEWESNGQPENNYKTTPPVLDSDGSFFLYSKLTVDKSRWQQGNVFSCSVMHEALHYHVTRKELSLSP
# light: not shown
# notes: EU numbering; copies: 2 + 2
# B2: IgG1-F1263 (antibody)
# heavy: B1 heavy with V252T, E258T, R440K, E442D
# light: not shown
# notes: EU numbering; copies: 2 + 2
# B3: IgG1-F1293 (antibody)
# heavy: B1 heavy with V252T, V438Y
# light: not shown
# notes: EU numbering; copies: 2 + 2
# B4: IgG1-F1290 (antibody)
# heavy: B1 heavy with V252T, H435D, R440K, E442D
# light: not shown
# notes: EU numbering; copies: 2 + 2
# B5: IgG1-F1311 (antibody)
# heavy: B1 heavy with V252T, E258T, V424A, S426A, H435D, R440Q, E442S
# light: not shown
# notes: EU numbering; copies: 2 + 2
# B6: IgG1-F1286 (antibody)
# heavy: B1 heavy with V252T, S256T, E258T, H435D
# light: not shown
# notes: EU numbering; copies: 2 + 2
# B7: IgG1-F1271 (antibody)
# heavy: B1 heavy with V252T, S256A, E258T, H435D
# light: not shown
# notes: EU numbering; copies: 2 + 2
# B8: IgG1-F1294 (antibody)
# heavy: B1 heavy with V252T, V438T
# light: not shown
# notes: EU numbering; copies: 2 + 2
# B9: IgG1-F1308 (antibody)
# heavy: B1 heavy with V252T, E258T, V424L, S426L, R440Q, E442S
# light: not shown
# notes: EU numbering; copies: 2 + 2
# B10: IgG1-F1284 (antibody)
# heavy: B1 heavy with V252T, E258N, H435D, R440K, E442D
# light: not shown
# notes: EU numbering; copies: 2 + 2
# B11: IgG1-F1277 (antibody)
# heavy: B1 heavy with V252T, E258A, H435D
# light: not shown
# notes: EU numbering; copies: 2 + 2
# B12: IgG1-F1266 (antibody)
# heavy: B1 heavy with V252T, E258N
# light: not shown
# notes: EU numbering; copies: 2 + 2
# B13: IgG1-F1275 (antibody)
# heavy: B1 heavy with V252T, E258Q, H435D, R440K, E442D
# light: not shown
# notes: EU numbering; copies: 2 + 2
# B14: IgG1-F1279 (antibody)
# heavy: B1 heavy with V252T, E258G, R440K, E442D
# light: not shown
# notes: EU numbering; copies: 2 + 2
# B15: IgG1-F1291 (antibody)
# heavy: B1 heavy with V252T, E258T, H435D, R440Q, E442S
# light: not shown
# notes: EU numbering; copies: 2 + 2
# B16: IgG1-F1309 (antibody)
# heavy: B1 heavy with V252T, E258T, R440A, E442A
# light: not shown
# notes: EU numbering; copies: 2 + 2
# B17: IgG1-F1301 (antibody)
# heavy: B1 heavy with V252T, V438F, R440K, E442D
# light: not shown
# notes: EU numbering; copies: 2 + 2
# B18: IgG1-F1305 (antibody)
# heavy: B1 heavy with V252T, E258T, H435D, E442D
# light: not shown
# notes: EU numbering; copies: 2 + 2
# B19: IgG1-F1297 (antibody)
# heavy: B1 heavy with V252T, H435D, V438T
# light: not shown
# notes: EU numbering; copies: 2 + 2
# B20: IgG1-F1265 (antibody)
# heavy: B1 heavy with V252T, E258G
# light: not shown
# notes: EU numbering; copies: 2 + 2
# B21: IgG1-F1273 (antibody)
# heavy: B1 heavy with V252T, E258Q, R440K, E442D
# light: not shown
# notes: EU numbering; copies: 2 + 2
# B22: IgG1-F1282 (antibody)
# heavy: B1 heavy with V252T, E258N, R440K, E442D
# light: not shown
# notes: EU numbering; copies: 2 + 2
# B23: IgG1-F1289 (antibody)
# heavy: B1 heavy with V252T, H435D
# light: not shown
# notes: EU numbering; copies: 2 + 2
# B24: IgG1-F1276 (antibody)
# heavy: B1 heavy with V252T, E258A, R440K, E442D
# light: not shown
# notes: EU numbering; copies: 2 + 2
# B25: IgG1-F1283 (antibody)
# heavy: B1 heavy with V252T, E258N, H435D
# light: not shown
# notes: EU numbering; copies: 2 + 2
# B26: IgG1-F1262 (antibody)
# heavy: B1 heavy with V252T, E258T, R440K
# light: not shown
# notes: EU numbering; copies: 2 + 2
# B27: IgG1-F1295 (antibody)
# heavy: B1 heavy with V252T, V438F
# light: not shown
# notes: EU numbering; copies: 2 + 2
# B28: IgG1-F1300 (antibody)
# heavy: B1 heavy with V252T, V438T, R440K, E442D
# light: not shown
# notes: EU numbering; copies: 2 + 2
# B29: IgG1-F1285 (antibody)
# heavy: B1 heavy with V252T, S256T, E258T, R440K, E442D
# light: not shown
# notes: EU numbering; copies: 2 + 2
# B30: IgG1-F1310 (antibody)
# heavy: B1 heavy with V252T, E258T, R440L, E442L
# light: not shown
# notes: EU numbering; copies: 2 + 2
# B31: IgG1-F1299 (antibody)
# heavy: B1 heavy with V252T, V438Y, R440K, E442D
# light: not shown
# notes: EU numbering; copies: 2 + 2
# B32: IgG1-F1292 (antibody)
# heavy: B1 heavy with V252T, Y254M, E258T, H435D, Y436W
# light: not shown
# notes: EU numbering; copies: 2 + 2
# B33: IgG1-F1260 (antibody)
# heavy: B1 heavy with V252T, E258T, T309Q, Q313H
# light: not shown
# notes: EU numbering; copies: 2 + 2
# B34: IgG1-F1250 (antibody)
# heavy: B1 heavy with V252T, S256T, E258Q
# light: not shown
# notes: EU numbering; copies: 2 + 2
# B35: IgG1-F1268 (antibody)
# heavy: B1 heavy with V252T, E258T, H435D
# light: not shown
# notes: EU numbering; copies: 2 + 2
# B36: IgG1-F1287 (antibody)
# heavy: B1 heavy with V252T, S256T, E258T, H435D, R440K, E442D
# light: not shown
# notes: EU numbering; copies: 2 + 2
# B37: IgG1-F1261 (antibody)
# heavy: B1 heavy with V252T, E258T, E442D
# light: not shown
# notes: EU numbering; copies: 2 + 2
# B38: IgG1-F1258 (antibody)
# heavy: B1 heavy with V252T, E258T, T309A, Q313H
# light: not shown
# notes: EU numbering; copies: 2 + 2
# B39: IgG1-F1298 (antibody)
# heavy: B1 heavy with V252T, H435D, V438F
# light: not shown
# notes: EU numbering; copies: 2 + 2
# B40: IgG1-F1259 (antibody)
# heavy: B1 heavy with V252T, E258T, T309Q, Q313A
# light: not shown
# notes: EU numbering; copies: 2 + 2
# B41: IgG1-F1248 (antibody)
# heavy: B1 heavy with S256T
# light: not shown
# notes: EU numbering; copies: 2 + 2
# B42: IgG1-F1264 (antibody)
# heavy: B1 heavy with V252T, E258A
# light: not shown
# notes: EU numbering; copies: 2 + 2
# B43: IgG1-F1280 (antibody)
# heavy: B1 heavy with V252T, E258G, H435D
# light: not shown
# notes: EU numbering; copies: 2 + 2
# B44: IgG1-F1253 (antibody)
# heavy: B1 heavy with V252T, E258T, T309A
# light: not shown
# notes: EU numbering; copies: 2 + 2
# B45: IgG1-F1278 (antibody)
# heavy: B1 heavy with V252T, E258A, H435D, R440K, E442D
# light: not shown
# notes: EU numbering; copies: 2 + 2
# B46: IgG1-F1303 (antibody)
# heavy: B1 heavy with V252T, H435D, V438T, R440K, E442D
# light: not shown
# notes: EU numbering; copies: 2 + 2
# B47: IgG1-F1306 (antibody)
# heavy: B1 heavy with V252T, E258T, H435D, R440K
# light: not shown
# notes: EU numbering; copies: 2 + 2
# B48: IgG1-F1251 (antibody)
# heavy: B1 heavy with E258Q
# light: not shown
# notes: EU numbering; copies: 2 + 2
# B49: IgG1-F1304 (antibody)
# heavy: B1 heavy with V252T, H435D, V438F, R440K, E442D
# light: not shown
# notes: EU numbering; copies: 2 + 2
# B50: IgG1-F1281 (antibody)
# heavy: B1 heavy with V252T, E258G, H435D, R440K, E442D
# light: not shown
# notes: EU numbering; copies: 2 + 2
# B51: IgG1-F1249 (antibody)
# heavy: B1 heavy with V252T, E258Q
# light: not shown
# notes: EU numbering; copies: 2 + 2
# B52: IgG1-F1307 (antibody)
# heavy: B1 heavy with V252T, E258T, V424A, S426A, R440Q, E442S
# light: not shown
# notes: EU numbering; copies: 2 + 2
# B53: IgG1-F1302 (antibody)
# heavy: B1 heavy with V252T, H435D, V438Y, R440K, E442D
# light: not shown
# notes: EU numbering; copies: 2 + 2
# B54: IgG1-F1274 (antibody)
# heavy: B1 heavy with V252T, E258Q, H435D
# light: not shown
# notes: EU numbering; copies: 2 + 2
# B55: IgG1-F1252 (antibody)
# heavy: B1 heavy with S256T, E258Q
# light: not shown
# notes: EU numbering; copies: 2 + 2
# B56: IgG1-F1296 (antibody)
# heavy: B1 heavy with V252T, H435D, V438Y
# light: not shown
# notes: EU numbering; copies: 2 + 2
# B57: IgG1-F1267 (antibody)
# heavy: B1 heavy with V252T, S256A, E258T
# light: not shown
# notes: EU numbering; copies: 2 + 2
# B58: IgG1-F1256 (antibody)
# heavy: B1 heavy with V252T, E258T, Q313H
# light: not shown
# notes: EU numbering; copies: 2 + 2
# B59: IgG1-F1255 (antibody)
# heavy: B1 heavy with V252T, E258T, Q313A
# light: not shown
# notes: EU numbering; copies: 2 + 2
# B60: IgG1-F1257 (antibody)
# heavy: B1 heavy with V252T, E258T, T309A, Q313A
# light: not shown
# notes: EU numbering; copies: 2 + 2
# Molecular target: T1, soluble human FcRn complexed with β2-microglobulin (human, UniProt P61769 21-119, limits assumed)
# T1 construct: also called hFcRn
# Assay: Biacore SPR, pH 7.0;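 further: test antibodies captured on a Protein L chip with human FcRn flowed over as analyte, KD obtained as the ratio of dissociation to association rate constants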
row,Kd,Binder
1,145 nM,B1
2,124 nM,B2
3,161 nM,B3
4,111 nM,B4
5,369 nM,B5
6,157 nM,B6
7,205 nM,B7
8,200 nM,B8
9,206 nM,B9
10,112 nM,B10
11,169 nM,B11
12,99.9 nM,B12
13,209 nM,B13
14,123 nM,B14
15,151 nM,B15
16,126 nM,B16
17,83 nM,B17
18,205 nM,B18
19,250 nM,B19
20,157 nM,B20

row,Kd,Binder
1,153 nM,B21
2,76.9 nM,B22
3,333 nM,B23
4,102 nM,B24
5,134 nM,B25
6,126 nM,B26
7,98.4 nM,B27
8,163 nM,B28
9,93.6 nM,B29
10,228 nM,B30
11,150 nM,B31
12,424 nM,B32
13,65.3 nM,B33
14,166 nM,B34
15,200 nM,B35
16,150 nM,B36
17,135 nM,B37
18,105 nM,B38
19,147 nM,B39
20,44.6 nM,B40

row,Kd,Binder
1,120 nM,B41
2,127 nM,B42
3,209 nM,B43
4,112 nM,B44
5,140 nM,B45
6,210 nM,B46
7,192 nM,B47
8,277 nM,B48
9,124 nM,B49
10,174 nM,B50
11,206 nM,B51
12,144 nM,B52
13,215 nM,B53
14,248 nM,B54
15,233 nM,B55
16,227 nM,B56
17,150 nM,B57
18,156 nM,B58
19,111 nM,B59
20,78.1 nM,B60
